Measured values from PMC9555795, “Divergent kinase WNG1 is regulated by phosphorylation of an atypical activation sub-domain” (Biochemical Journal, 2022).

Target: the molecule itself
Experiment: SAXS; protein diluted from a 305 uM stock in 20 mM HEPES pH 7.5, 100 mM NaCl; DAMMIN envelope, SASREF P2 tetramer model compared with the crystal hexamer

B1: BPK1 (residues 61-377) (domain or fragment)
chain: SVYRIPLADMTFWSWMSYLKELPDIDESRNPILKRLLSGSFLRRDGSTTVNVRVPARELVRLLSLTPEQQREGVSAKVRLINLLDPKYSVYEPYLYREILPKRSPLLLPSLGEYRGAFLTYIFHPLSKGLVGDMLETGRSHPDVQVLAANMVAALKSLHNLGLLHRSIELNSFSVLPDGTVVLGGLDTAAPIGTETRLWVGFFGQETAPEIDRNFLADLALTQGRHTVKSDVYSLGVAFRNLVQLLGNGNIGPEDRGAVRQDHLELLDKLSQKMIEEEPGNRPTIEEIMKDPLFEGLNFEDIEEGKARPFRYKQNRL
notes: BPK1, pseudokinase of the WNG family, Toxoplasma gondii, residues 61-377; Cloned in pET28a with the SUMO tag; Purified on Ni-NTA as for WNG1, so a His tag probably went off with the SUMO tag; The species is stated for the WNG family in general, not for BPK1 by name; also called WNG family pseudokinase; source: Rosetta 2 (DE3) cells, purified (Ni-NTA, ULP1 digestion, anion exchange, SEC)
stoichiometry N: 4
